The source of these data is patent US20230383009A1 (CARIBOU BIOSCIENCES, published 2023).

Assay [1] deals with T1, ROR1 extracellular domain fused to human Fc (hFc) protein (human, UniProt Q01973 30-406).
T1 construct: extracellular domain; also called ROR1-human Fc fusion protein; human ROR1 antigen; not shown: human Fc (hFc)
Kind of assay: Western blot, anti-ROR1 scFv-mouse Fc fusion as primary antibody, anti-mouse IgG-HRP as secondary. The text has this:
In this example, we generated a mouse monoclonal anti-ROR1 antibody using standard hybridoma technology. The mouse anti-ROR1 antibody (IgG1 type) detected extracellular ROR1 protein by ELISA (data not shown). We sequenced this hybridoma clone 2H6 and generated an scFv using VH and VL (see further in Example 2). […] The ROR1-human Fc fusion protein was detected with an antibody directed against the human Fc domain.
Background: A western blot detects proteins with antibodies after separation by electrophoresis.

Assay [2] deals with T2, ROR1 on human cancer cell lines (HepG2, MDA231, HT-29, SKOV-3) (human, UniProt Q01973 30-937).
T2 construct: whole, on cells; Endogenous ROR1 of tumour cell lines, not transfected cells; also called ROR1-positive cells; ROR1-expressing cell line SKOV-3
Kind of assay: flow cytometry (FACS) on cancer cell lines. The text has this: Normal keratinocytes were used as a negative control (FIG. 4). (MFI: […] compared to the isotype).

For assay [3], the target named is T3, extracellular ROR1 protein (human, UniProt Q01973 30-406).
T3 construct: extracellular domain
Kind of assay: ELISA. In general terms: In an ELISA, binding on a coated surface is turned into a signal by an enzyme label.

T2 sequence (Q01973 30-937): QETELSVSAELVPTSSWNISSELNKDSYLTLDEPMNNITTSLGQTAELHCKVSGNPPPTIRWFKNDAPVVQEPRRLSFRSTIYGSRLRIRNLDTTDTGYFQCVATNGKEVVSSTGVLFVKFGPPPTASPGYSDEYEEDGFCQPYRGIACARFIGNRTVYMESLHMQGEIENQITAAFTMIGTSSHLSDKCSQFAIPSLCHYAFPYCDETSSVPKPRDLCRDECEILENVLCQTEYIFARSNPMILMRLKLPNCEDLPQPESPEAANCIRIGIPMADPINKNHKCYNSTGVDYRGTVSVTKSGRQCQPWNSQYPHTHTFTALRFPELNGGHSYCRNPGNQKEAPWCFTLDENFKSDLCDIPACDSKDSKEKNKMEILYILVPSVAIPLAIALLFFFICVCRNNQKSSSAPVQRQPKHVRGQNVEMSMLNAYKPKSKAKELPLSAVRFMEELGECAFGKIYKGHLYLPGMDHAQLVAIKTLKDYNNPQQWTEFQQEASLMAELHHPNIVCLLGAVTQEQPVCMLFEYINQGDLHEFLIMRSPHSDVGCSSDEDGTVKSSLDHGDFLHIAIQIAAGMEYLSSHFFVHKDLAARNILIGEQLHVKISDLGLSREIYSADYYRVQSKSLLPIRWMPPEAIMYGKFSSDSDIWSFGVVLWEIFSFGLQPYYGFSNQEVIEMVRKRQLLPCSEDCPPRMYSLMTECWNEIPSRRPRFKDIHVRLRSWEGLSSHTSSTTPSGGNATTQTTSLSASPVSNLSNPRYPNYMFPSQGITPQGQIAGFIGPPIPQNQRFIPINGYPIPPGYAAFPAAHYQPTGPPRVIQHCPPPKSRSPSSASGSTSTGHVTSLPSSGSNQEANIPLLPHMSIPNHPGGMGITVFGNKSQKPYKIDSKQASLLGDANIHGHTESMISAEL
T3 sequence (Q01973 30-406): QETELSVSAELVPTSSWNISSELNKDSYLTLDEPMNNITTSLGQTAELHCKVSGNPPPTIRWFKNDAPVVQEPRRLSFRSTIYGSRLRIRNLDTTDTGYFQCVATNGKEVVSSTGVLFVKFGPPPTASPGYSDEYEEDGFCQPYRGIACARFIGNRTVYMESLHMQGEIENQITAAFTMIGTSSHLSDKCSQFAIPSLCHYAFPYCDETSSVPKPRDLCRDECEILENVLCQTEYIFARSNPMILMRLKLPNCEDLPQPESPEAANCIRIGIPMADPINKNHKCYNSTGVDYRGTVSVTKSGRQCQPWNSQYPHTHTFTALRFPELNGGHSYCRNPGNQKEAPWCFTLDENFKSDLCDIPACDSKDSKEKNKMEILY
T1 sequence (Q01973 30-406): as above

B1: anti-ROR1 scFv-mouse Fc fusion (scFv of clone 2H6) (Fc fusion)
scFv: VKLVESGGGLVKPGGSLKLSCAASGFTFSTYAMSWVRQTPEKRLEWVASISSGGNTYYPDSVKGRFTISRDNARHILYLQMSSLRSEDTAMYYCARDSYYFGNSVYYAMDYWGQGTSVTVSSGGGGSGGGGSGGGGSDIKMTQSPSSMYASLGERVTITCKASQDINSYFSWFQQKPGKSPKTLIYRANRLVDGVPSRFSGSGSGQDYSLTISSLEYEDMGIYYCLQYDEFPYTFGGGTKLEIKR
notes: Used as the primary antibody in the Western blot. scFv is VH-(G4S)3-VL; The mouse Fc part is not described; also called anti-ROR1 scFv (mouse clone 2H6); not shown: mouse Fc
In the case of B1, the binding result in assay [1] is “binds”.

B2: mouse monoclonal anti-ROR1 antibody, hybridoma clone 2H6 (antibody, V domains shown)
VH: VKLVESGGGLVKPGGSLKLSCAASGFTFSTYAMSWVRQTPEKRLEWVASISSGGNTYYPDSVKGRFTISRDNARHILYLQMSSLRSEDTAMYYCARDSYYFGNSVYYAMDYWGQGTSVTVSS
VL: DIKMTQSPSSMYASLGERVTITCKASQDINSYFSWFQQKPGKSPKTLIYRANRLVDGVPSRFSGSGSGQDYSLTISSLEYEDMGIYYCLQYDEFPYTFGGGTKLEIKR
notes: Hybridoma antibody, mouse IgG1 type; also called mouse anti-ROR1 antibody (IgG1 type); mouse anti-ROR1 monoclonal antibody
On to B2, for which the binding result in assay [2] and in assay [3] was “binds” throughout.
